US20240301076A1 (CEPHALON, published 2024)
Several values for one entry are separate records, joined by “and”; a condition that tells them apart may be missing. Equal entries are not always repeated. Where two headings read alike, the source gives them in different places.

T1: human CXCR2 (human, UniProt P25025 1-360)
T1 sequence: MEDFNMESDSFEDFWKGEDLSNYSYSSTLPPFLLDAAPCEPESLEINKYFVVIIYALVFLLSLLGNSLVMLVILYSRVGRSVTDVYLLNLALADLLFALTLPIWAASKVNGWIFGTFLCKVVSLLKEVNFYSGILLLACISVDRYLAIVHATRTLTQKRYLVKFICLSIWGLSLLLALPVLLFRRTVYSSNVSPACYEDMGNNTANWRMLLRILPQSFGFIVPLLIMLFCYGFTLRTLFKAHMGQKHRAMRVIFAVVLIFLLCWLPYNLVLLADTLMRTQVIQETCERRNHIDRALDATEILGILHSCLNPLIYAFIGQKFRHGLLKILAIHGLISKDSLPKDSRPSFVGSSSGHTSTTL

T2: cynomolgus monkey CXCR2 (cynomolgus monkey, UniProt Q28519 3-353 (rhesus entry))
T2 construct: native on cynomolgus blood cells in the entries below; also called cynomolgus CXCR2
T2 chain: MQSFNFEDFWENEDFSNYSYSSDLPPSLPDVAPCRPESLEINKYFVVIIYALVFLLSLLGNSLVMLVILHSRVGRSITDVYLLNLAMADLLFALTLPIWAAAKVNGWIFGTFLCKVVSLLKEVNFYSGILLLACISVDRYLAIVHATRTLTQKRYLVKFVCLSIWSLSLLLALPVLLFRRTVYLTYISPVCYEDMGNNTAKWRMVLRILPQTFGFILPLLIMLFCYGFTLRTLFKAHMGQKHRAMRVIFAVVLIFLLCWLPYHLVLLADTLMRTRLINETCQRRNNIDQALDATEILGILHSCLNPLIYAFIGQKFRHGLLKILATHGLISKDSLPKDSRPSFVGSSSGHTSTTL

T3: human CXCR1 (human, UniProt P25024 1-350)
T3 sequence: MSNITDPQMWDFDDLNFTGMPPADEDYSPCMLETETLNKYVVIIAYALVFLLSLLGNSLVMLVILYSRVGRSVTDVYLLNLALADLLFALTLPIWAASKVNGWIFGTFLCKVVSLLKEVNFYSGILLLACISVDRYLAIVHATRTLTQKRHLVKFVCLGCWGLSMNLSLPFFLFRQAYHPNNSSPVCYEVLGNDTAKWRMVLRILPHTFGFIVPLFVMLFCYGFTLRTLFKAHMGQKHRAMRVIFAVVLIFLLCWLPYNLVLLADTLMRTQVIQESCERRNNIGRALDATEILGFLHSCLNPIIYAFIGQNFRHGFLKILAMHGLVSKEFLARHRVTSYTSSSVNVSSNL


Experiments:
human CXCR2 [1] = biological target: T1, human CXCR2; assay: cell-based or functional assay
cynomolgus monkey CXCR2 = biological target: T2, cynomolgus monkey CXCR2; assay: flow cytometry, native CXCR2 on cynomolgus PBMC preparations
Procedure: Whole human buffy coat, PBMC enriched fractions prepared from human peripheral blood buffy coat or cynomolgus monkey whole blood was used for analysis of antibody binding activity by flow cytometry. Briefly, blood was untreated or diluted 1:1 in sterile filtered room temperature phosphate-buffered saline (PBS). 30 mL samples were layered over 15 mL Lymphoprep™ (Stem Cell Technologies, cat #07851). Peripheral blood mononuclear cells (PBMC) were enriched by room temperature centrifugation at 700 g for 30 minutes with no braking. The PBMC layer was isolated and cells washed in PBS containing 2 mM EDTA with low speed centrifugation at 200 g, to remove platelet contamination. Whole blood or PBMC enriched cell fractions were resuspended in red blood cell lysing solution (BioLegend, 420301). Viable cell counts were determined and cells resuspended at 1×10⁷ cells per mL in FACS buffer (1×PBS+0.5% (w/v) BSA+2 mM EDTA pH 7.2).
Flow cytometry binding assays using whole blood or PBMC enriched preparations: Binding assays to detect CXCR2 on blood neutrophil populations using test antibodies were performed essentially as described for assays using transiently transfected Expi293F™ cells. […] Matched isotype control antibodies were included for comparison. […] Neutrophil populations were identified by characteristic granularity and size, and positive binding of commercially available antibodies against CD10 (Biolegend, clone Hl10a, catalogue number 312204). Cells were washed and fixed (BioLegend Fixation buffer, 420801) prior to analysis. The level of fluorescence on the cell surface was measured by flow cytometry.

human CXCR2 [2] = biological target: T1, human CXCR2; assay: flow cytometry, CXCR2-transfected Expi293F cells
Procedure: (§1) Harvested cells were resuspended in FACS buffer (1×PBS+0.5% (w/v) bovine serum albumin (BSA)+2 mM EDTA pH 7.2). Approximately 2×10⁵ cells were added per well in a 96-well round-bottomed plate. Cells were pelleted by centrifugation at 400 g for 5 mins at 4° C. and supernatants discarded. 25 μL of each test antibody or control antibody was added to the cells and incubated for 30 minutes at 4° C. Cells were washed twice in 100 μL FACS buffer followed by centrifugation at 400 g for 5 mins at 4° C.
(§2) For detection, 50 μL of secondary antibody (Table 2) was added to relevant samples. Commercially available antibodies that bound to transfected CXCR family members were used as positive controls to ensure that the cells were expressing the receptors. Cells were washed twice in 200 μL of FACS buffer followed by centrifugation at 400 g for 5 mins at 4° C. Before sample acquisition, cells were resuspended in 100 μL of FACS buffer. Samples were acquired using the high throughput sampler on a FACSCanto™ II cytometer (Beckton-Dickinson).
Each heavy chain was co-expressed with each light chain to produce a sequence optimized antibody variant. Antibodies were purified and tested for CXCR2 binding activity as described in General Methods.

human CXCR1 = biological target: T3, human CXCR1; assay: flow cytometry, transfected Expi293F cells
Procedure: as §1, §2
(§3) These antibody variable regions were then generated by gene synthesis and subcloned into mammalian expression vectors as described in General Methods. Antibodies were produced by co-expression of heavy and light chain plasmids in Expi293F™ cells and purified by protein A column chromatography as described in General Methods. Where several heavy and/or light chains were identified from the same hybridoma cells, each heavy chain was paired with each light chain and the resulting antibodies given suffix a, b, c, etc. Purified antibodies were desalted into Sorensen's PBS pH 5.8 and tested by flow cytometry for binding to Expi293F™ cells transfected with human CXCR2 or human CXCR1 and mock transfected Expi293F™ cells.

human CXCR2 [3] = biological target: T1, human CXCR2; assay: cell-based or functional assay; remark: listed apart in the source
human CXCR2 [4] = biological target: T1, human CXCR2; assay: flow cytometry, CXCR2-transfected Expi293F cells; remark: listed apart in the source
Procedure: as §1, §2
A further six heavy chain combinational variants comprising four or more amino acid substitutions were produced as provided in Table 12. […] Each heavy chain was co-expressed with light chain c (SEQ ID NO:110) to produce an antibody variant. Antibodies were purified and tested for CXCR2 binding activity as described in General Methods.

human CXCR2 [5] = biological target: T1, human CXCR2; assay: flow cytometry, transfected Expi293F cells
Procedure: as §1, §2, §3

| CXCL1 IC50, Tango assay (human CXCR2 [1]) [nM] | CXCL8 IC50, Tango assay (human CXCR2 [1]) [nM] | binding result (cynomolgus monkey CXCR2) | EC50 (human CXCR2 [2]) | binding result (human CXCR1) | IC50, CXCL1, Tango assay (human CXCR2 [3]) [nM] | IC50, CXCL8, Tango assay (human CXCR2 [3]) [nM] | EC50 (human CXCR2 [4]) | CXCL1 Fold Improvement over 4A8 WT (human CXCR2 [1]) [fold] | CXCL8 Fold Improvement over 4A8 WT (human CXCR2 [1]) [fold] | Max binding (MFI Percent of 4A8 WT) (human CXCR2 [4]) [%] | Max binding (MFI) (human CXCR2 [4]) | binding result (human CXCR2 [5]) | Binder |
| --- | --- | --- | --- | --- | --- | --- | --- | --- | --- | --- | --- | --- | --- |
| 94 | 0.66 | binds | 0.4 nM and 0.5 nM and 0.6 nM and 0.9 nM | no binding | 0.177 | 0.112 | 1.58 nM and 3.82 nM |  |  |  |  |  | BKO-4A8 (antibody, human IgG4 S228P, lambda, recombinant human IgG4 S228P, lambda; also called BKO-4A8 IgG4; parental BKO-4A8) heavy: not shown light: QSALTQPPSASGSPGQSVTISCIGTSSDVGGYNYVSWYQQHPDKAPKLMIYEVNKRPSGVPDRFSGSKSGNTASLTVSGLQAEDEADYYCSSYAGNNNFGVFGGGTKLTVLGQPKAAPSVTLFPPSSEELQANKATLVCLISDFYPGAVTVAWKADSSPVKAGVETTTPSKQSNNKYAASSYLSLTPEQWKSHRSYSCQVTHEGSTVEKTVAPTECS |
| 4 | 1.85 |  |  |  |  |  | 5.73 nM | 0.24 | 0.36 | 52 | 42700 |  | BKO-4A8-105c (antibody, human IgG4 S228P, lambda, V domains shown, IgG4 S228P, lambda) VH: EVQLLESGGGLVQPGGSLRLSCAASGFTFSSSTQSWVRQPPGKGLEWVSAISGSGGSTYYADSVKGRFTISRDNSKNTLYLQMNSLRAEDTAVYYCAIQAGYWGQGILVTVSS VL: QSALTQPPSASGSPGQSVTISCIGTSSDVGGYNYVSWYQQHPGKAPKLMIYEVSKRPSGVPDRFSGSKSGNTASLTVSGLQAEDEADYYCSSYAGSNNFGVFGGGTKLTVLG |
|  |  |  |  |  |  |  | > 100 nM |  |  |  | 11600 |  | BKO-4A8 combinatorial variant 106c (antibody, human IgG4 S228P, lambda, V domains shown, IgG4 S228P, lambda) VH: EVQLLESGGGLVQPGGSLRLSCAASGFTFSSSTQSWVRQPPGKGLEWVSAISGSGGSTYYADSVKGRFTISRDNSKNTLYLQMNSLRAEDTAVYYCAIQEGYWGQGILVTVSS VL: QSALTQPPSASGSPGQSVTISCIGTSSDVGGYNYVSWYQQHPGKAPKLMIYEVSKRPSGVPDRFSGSKSGNTASLTVSGLQAEDEADYYCSSYAGSNNFGVFGGGTKLTVLG |
|  |  |  |  |  |  |  | 8.7 nM |  |  | 53 | 33000 |  | BKO-4A8 combinatorial variant 102c (antibody, human IgG4 S228P, lambda, V domains shown, IgG4 S228P, lambda) VH: EVQLLESGGGLVQPGGSLRLSCAASGFTFSSSTQSWVRQPPGKGLEWVSAISGRGRSTYYADSVKGRFTISRDNSKNTLYLQMNSLRAEDTAVYYCAIQEGYWGQGILVTVSS VL: QSALTQPPSASGSPGQSVTISCIGTSSDVGGYNYVSWYQQHPGKAPKLMIYEVSKRPSGVPDRFSGSKSGNTASLTVSGLQAEDEADYYCSSYAGSNNFGVFGGGTKLTVLG |
| 2.4 | 1.25 |  |  |  |  |  | 5.15 nM | 2.55 | 0.53 | 72 | 44400 |  | BKO-4A8-103c (antibody, human IgG4 S228P, lambda, V domains shown, IgG4 S228P, lambda) VH: EVQLLESGGGLVQPGGSLRLSCAASGFTFSSSTQSWVRQPPGKGLEWVSAISGSGGSTYYADSVKGRFTISRDNSKNTLYLQMNSLRAEDTAVYYCAIQMGYWGQGILVTVSS VL: QSALTQPPSASGSPGQSVTISCIGTSSDVGGYNYVSWYQQHPGKAPKLMIYEVSKRPSGVPDRFSGSKSGNTASLTVSGLQAEDEADYYCSSYAGSNNFGVFGGGTKLTVLG |
| 2.17 | 0.75 |  |  |  |  |  | 6.45 nM | 0.43 | 0.88 | 54 | 45100 |  | BKO-4A8-104c (antibody, human IgG4 S228P, lambda, V domains shown, IgG4 S228P, lambda) VH: EVQLLESGGGLVQPGGSLRLSCAASGFTFSSSTQSWVRQPPGKGLEWVSAISGSGGSTYYADSVKGRFTISRDNSKNTLYLQMNSLRAEDTAVYYCAIQKGYWGQGILVTVSS VL: QSALTQPPSASGSPGQSVTISCIGTSSDVGGYNYVSWYQQHPGKAPKLMIYEVSKRPSGVPDRFSGSKSGNTASLTVSGLQAEDEADYYCSSYAGSNNFGVFGGGTKLTVLG |
|  |  | binds |  | no binding |  |  |  |  |  |  |  | binds | BKO-8G3_b (antibody, human IgG4 S228P, lambda, V domains shown, recombinant human IgG4 S228P, lambda) VH: EVQLLESGGGLVQPGGSLRLSCAASGFTFSSYAMSWVRQAPGKGLEWVSAITGSGGSTYYADSVKGRFTISRDKSKNTLYLQMNSLRAEDTAVYYCAIRLGYWGQGSLVTVSS VL: QSALTQPPSASGSPGQSVTISCTGTSSDVGGYNYVSWYQQHPGKVPKLVIYEVSKRPSGVPDRFSGSKSGNTASLTVSGLQAEDEADYYCSSYAGSNNFGVFGGGTKLTVLG |
|  |  | binds |  | no binding |  |  |  |  |  |  |  | binds | BKO-9C3_a (antibody, human IgG4 S228P, lambda, V domains shown, recombinant human IgG4 S228P, lambda) VH: EVQVLESGGGLVQPGGSLRLSCAASGFTFRSYAMSWVRQAPGKGLEWVSAISGSGGSTYYADSVKGRFTISRDKSKNTLYLQMNSLRAEDTAVYYCAIQLGYWGQGTLVTVSS VL: QSALTQPPSASGSPGQSVIISCTGTSSDVGGYNYVSWYQQHPGKVPKLMIYEVSKRPSGVPDRFSGSKSGNTASLTVSGLQAEDEADYYCTSYAGSNNFGVFGGGTKLTVLG |
